The Immune Epitope Database (IEDB)

The sequences below were run against HLA-B*38:01 (assay: IEDB peptide-MHC binding, purified MHC/competitive/radioactivity; ≥ and ≤ were set here for values at or beyond the usual limits of such assays). Details: source organism: Human immunodeficiency virus 1.

Row | Sequence | IC50
1 | MHEDIISLW | 0.053 µM
2 | KRHKEFALF | 1.1 µM
3 | KTQKEYALF | 40.6 µM
4 | GHQAAMQML | 1.02 µM
5 | KMQKEHALF | 12.1 µM
6 | WHLGQGVSI | 0.01 µM

Same assay, conditions: source organism: Simian immunodeficiency virus

Row | Sequence | IC50
7 | VPSLQYLAL | 1.53 µM
8 | DRFGLAESL | 0.03 µM
9 | THIQQDPAL | 0.148 µM
10 | NHLPRELIF | 1.12 µM
11 | THTNGVRLL | 0.617 µM
12 | DHQAAMQII | 0.125 µM
13 | NETWYSADL | 3.92 µM
14 | IHGQANSDL | 2.36 µM
15 | WLFSNCRTL | 0.993 µM
16 | FRQYTAFTL | 0.017 µM

Same assay, conditions: source organism: Vaccinia virus

Row | Sequence | IC50
17 | IHIPGDTLF | 0.011 µM

Same assay, conditions: source organism: Variola virus

Row | Sequence | IC50
18 | RHDITGFIL | 0.0064 µM
19 | YKEPNSIIL | 4.73 µM

The sequences below were run against HLA-B*39:06 in the same assay as above. Details: source organism: Homo sapiens.

Row | IC50 | Sequence
20 | 0.137 µM | IEHDVVMKA
21 | 0.0096 µM | HRLEGLREA
22 | 3.73 µM | YYDEKVVKL
23 | 0.371 µM | NRYDGIYKV
24 | 0.011 µM | TQRLIRESA
25 | 27.9 µM | NHINVELSL
26 | 0.015 µM | ERMKLVVQA
27 | 0.0077 µM | LQHPFVRSA
28 | 0.072 µM | DHHLPPPAA
29 | 0.017 µM | YHDIKRITA
30 | 0.353 µM | TFDVAPSRL
31 | 0.015 µM | THNYGIGAA
32 | 0.0081 µM | SRYLGKITA
33 | 0.0017 µM | FRYQGHVGA
34 | 0.45 µM | TRYQIPKEV
35 | 0.0092 µM | ERFYGKYTA
36 | 0.0027 µM | NRVMLPKAA
37 | 0.04 µM | GRSIAFHSA
38 | 0.006 µM | ARFTGIKTA

Same assay, conditions: source organism: Mus musculus

Row | IC50 | Sequence
39 | ≥ 76.1 µM | LVAEAFEHT
40 | ≥ 77 µM | EAFEHTPGV
41 | 11.9 µM | MALWMRFLP
42 | 1.35 µM | YRFIKIPTH
43 | 2.2 µM | IHIDSTPFA
44 | 1.21 µM | EHTPGVHMA
45 | ≥ 77 µM | INSEMFLRS
46 | 68.8 µM | TNVFLFLFA
